In article PMC2396876 (The EMBO Journal, 2008):
Where “and” joins values, the source holds several entries; their conditions need not be identical. Equal values may be shown once.

Assays:
[1] = biological target: UspA1^(527–665), recombinant fragment of the Moraxella catarrhalis MX2 adhesin UspA1 (Moraxella catarrhalis (strain MX2)); test: AUC
[2] = biological target: N‐CEACAM1, the N‐terminal domain of human carcinoembryonic antigen‐related cell adhesion molecule 1 (human); test: AUC
[3] = biological target: UspA1^(527–665), recombinant fragment of the Moraxella catarrhalis MX2 adhesin UspA1 (Moraxella catarrhalis (strain MX2)); test: ITC
[4] = biological target: UspA1^(527–665) A568Q (Moraxella catarrhalis (strain MX2)); test: western blot of oligomers
[5] = biological target: UspA1^(527–665) A588Q (Moraxella catarrhalis (strain MX2)); test: western blot of oligomers
[6] = biological target: UspA1^(527–665) A590Q (Moraxella catarrhalis (strain MX2)); test: western blot of oligomers
[7] = biological target: UspA1^(527–665) L583A (Moraxella catarrhalis (strain MX2)); test: western blot of oligomers
[8] = biological target: UspA1^(527–665) M586A (Moraxella catarrhalis (strain MX2)); test: western blot of oligomers
[9] = biological target: UspA1^(527–665), recombinant fragment of the Moraxella catarrhalis MX2 adhesin UspA1 (Moraxella catarrhalis (strain MX2)); test: crystal structure
[10] = biological target: UspA1^(527–665) M586A (Moraxella catarrhalis (strain MX2)); test: far-Western, overlay or dot blot
[11] = biological target: UspA1^(527–665) M586A/A588Q (Moraxella catarrhalis (strain MX2)) (UniProt Q9XD56); test: far-Western, overlay or dot blot
[12] = biological target: the molecule itself; test: western blot of oligomers

For “N‐CEACAM1, the N‐terminal domain of human carcinoembryonic antigen‐related cell adhesion molecule 1 (domain or fragment)”, the stoichiometry N (N‐CEACAM1 per UspA1^(527–665) trimer) [1] was 2, the stoichiometry N (chains in the oligomer) [2] was 2 and the Kd [3] was 35 nM. The stoichiometry N (N‐CEACAM1 per UspA1^(527–665) trimer) [3] was 2.1 and 1.9.

Work on “UspA1^(527–665) A568Q (domain or fragment)” yielded a stoichiometry N (chains in the oligomer) [4] of 3.

“UspA1^(527–665) A588Q (domain or fragment)” gave a stoichiometry N (chains in the oligomer) [5] of 3.

Molecule “UspA1^(527–665) A590Q (domain or fragment)” has a stoichiometry N (chains in the oligomer) [6] of 3.

“UspA1^(527–665) L583A (domain or fragment)” gave a stoichiometry N (chains in the oligomer) [7] of 3.

In the case of “UspA1^(527–665) M586A (domain or fragment)”, the stoichiometry N (chains in the oligomer) [8] is reported as 3.

Molecule “UspA1^(527–665), recombinant fragment of the Moraxella catarrhalis MX2 adhesin UspA1 (domain or fragment)” has a stoichiometry N (chains in the oligomer) [9] of 3 and a stoichiometry N (chains in the oligomer) [1] of 3.

In the case of “soluble CEACAM1‐Fc receptor (from UniProt P13688 35-428) (Fc fusion)”, the decrease in CEACAM1 binding (densitometry, against native UspA1^(527–665)) [10] is reported as 14.8% and the decrease in CEACAM1 binding (densitometry, against native UspA1^(527–665)) [11] is reported as 90.4%.

B1: UspA1^(527–665) M586A/A588Q (domain or fragment, Moraxella catarrhalis (strain MX2), UniProt Q9XD56 527-665, looked up)
chain: ASSANTDRIATAELGIAENKKDAQIAKAQANENKDGIAKNQADIQLHDKKITNLGILHSAVQRAVGNNTQGVATNKADIAKNQADIANNIKNIYELAQQQDQHSSDIKTLAKVSAANTDRIAKNKAEADASFETLTKNQ
In the case of B1, the “stoichiometry N” value [12] is reported as 3 chains in the oligomer.
